# Test results published in paper PMC5063001 (Nucleic Acids Research, 2016).
# T1: FLI1 DBD (276-375) (UniProt Q01543 276-375)
# T1 sequence: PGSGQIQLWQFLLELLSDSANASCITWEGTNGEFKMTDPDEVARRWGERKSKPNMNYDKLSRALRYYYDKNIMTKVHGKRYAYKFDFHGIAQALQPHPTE
# T2: FLI1 DBD (259-399) (UniProt Q01543 259-399)
# T2 sequence: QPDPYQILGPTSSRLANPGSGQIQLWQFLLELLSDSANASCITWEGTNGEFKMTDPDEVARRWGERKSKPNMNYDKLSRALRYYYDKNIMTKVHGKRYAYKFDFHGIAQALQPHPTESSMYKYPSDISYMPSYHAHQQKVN
# T3: 15N-labeled FLI1 DBD (NMR) (UniProt Q01543 259-399)
# T3 sequence: T2 sequence
# B1: 11-mer GACCGGAAGTG (dsDNA)
# DNA 1: GACCGGAAGTG
# DNA 2: CACTTCCGGTC
# B2: AA(GGAA)6 (dsDNA)
# DNA 1: AAGGAAGGAAGGAAGGAAGGAAGGAA
# DNA 2: TTCCTTCCTTCCTTCCTTCCTTCCTT
# B3: DNA binding domain of FLI1 (residues 276-375) (domain or fragment)
# chain: T1 sequence
# B4: 12-mer TTGAAGGAAGAG (dsDNA)
# DNA 1: TTGAAGGAAGAG
# DNA 2: CTCTTCCTTCAA
# Columns and labels:
# FLI1 DBD (276-375) = target: T1, FLI1 DBD (276-375); assay: X-ray crystallography
# FLI1 DBD (259-399) = target: T2, FLI1 DBD (259-399); assay: fluorescence anisotropy
# crystal structure = target: the molecule itself; assay: crystal structure
# [1] = target: T3, 15N-labeled FLI1 DBD (NMR); assay: NMR
binder,measurement,setting,value
B1,binding result,FLI1 DBD (276-375),binds
B2,binding result,FLI1 DBD (259-399),binds
B3,binding result,crystal structure,binds
B4,binding result,[1],binds
